Measurements as given in US8344120B2, “Nucleic acid molecules encoding rage fusion proteins” (TransTech Pharma, Inc., priority 2006, dated 2013).

Legend:
amphoterin (Ampho) = target: T1, amphoterin (Ampho) (Homo sapiens, UniProt P09429); experiment: In vitro ligand binding ELISA, immobilized amphoterin; conditions: ligand 5 micrograms per well; fusion protein at increasing dilutions, 37° C. one hour
T1 sequence (P09429 1-215): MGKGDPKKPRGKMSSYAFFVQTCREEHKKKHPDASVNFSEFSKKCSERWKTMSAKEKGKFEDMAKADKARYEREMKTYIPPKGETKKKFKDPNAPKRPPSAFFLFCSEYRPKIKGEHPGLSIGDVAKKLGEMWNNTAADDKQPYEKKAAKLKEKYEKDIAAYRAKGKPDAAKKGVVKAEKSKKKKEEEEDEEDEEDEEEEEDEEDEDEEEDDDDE
Method: For example, the RAGE fusion protein may be used in a binding assay to identify potential RAGE ligands. In one example embodiment of such a binding assay, a known RAGE ligand may coated onto a solid substrate (e.g., Maxisorb plates) at a concentration of about 5 micrograms per well, where each well contains a total volume of about 100 microliters (4). The plates may be incubated at 4° C. overnight to allow the ligand to absorb or bind to the substrate. Alternatively, shorter incubation periods at higher temperature (e.g., room temperature) may be used. […] The RAGE fusion protein bound to the immobilized ligand may be detected in a variety of ways. […] The bound complex may be detected by adding the alkaline phosphatase substrate, para-nitrophenylphosphate (PNPP), and measuring conversion of PNPP to para-nitrophenol (PNP) as an increase in absorbance at 405 nm. […] In the absence of ligand (i.e., coating with only BSA) there was no increase in absorbance. […] Binding was detected by the addition of an immunodetection complex containing a monoclonal mouse anti-human IgG1 diluted 1:11,000 to a final assay concentration (FAC) of 21 ng/100 μL, a biotinylated goat anti-mouse IgG diluted 1:500, to a FAC of […], and an avidin-linked alkaline phosphatase. […]

[1] = test system: diabetic rat model of restenosis; experiment: Diabetic rat model of restenosis; assay type: in vivo, rats; conditions: for Intimal area / Medial area: IP, 21 days
Method: Use of the RAGE fusion proteins in the treatment of diabetes related pathology is illustrated in FIG. 14.
In these experiments, balloon injury of left common carotid artery was performed in Zucker diabetic and nondiabetic rats using standard procedure. […] A maintenance dose was delivered every other day until day 7 after injury (i.e., at day 1, 3, 5 and 7 after injury). The maintenance dose was high=1 mg/animal for one group, or low=0.3 mg/animal for the second group. To measure vascular smooth muscle cell (VSMC) proliferation, animals were sacrificed at 4 days and 21 days after injury.
For the measurement of cell proliferation, 4 day animals received intraperitoneal injection of bromodeoxyuridine (BrDdU) 50 mg/kg at 18, 12, and 2 hours before euthanasia. After sacrifice, the entire left and right carotid arteries were harvested. Specimens were stored in Histochoice for at least 24 hours before embedding. Assessment of VSMC proliferation was performed using mouse anti-BrdU monoclonal antibody. A fluorescence labeled goat anti-mouse secondary antibody was applied. The number of BrdU-positive nuclei per section were counted by two observers blinded to the treatment regimens.
The remaining rats were sacrificed at 21 days for morphometric analysis. Morphometric analyses were performed by an observer blinded to the study groups, using computerized digital microscopic planimetry software Image-Pro Plus on serial sections, ([…]) carotid arteries stained by Van Gieson staining. All data were expressed as mean±SD. Statistical analysis was performed with use of SPSS software. Continuous variables were compared using unpaired t tests. A values of P≦0.05 was considered to be statistically significant.
In FIG. 14B, the y-axis represents the number of BrdU proliferating cells.

[2] = High dose 1.0 mg/animal qod × 4, loading dose 3 mg/animal
[3] = Low dose 0.3 mg/animal qod × 4, loading dose 3 mg/animal

B1: TTP-4000: four domain RAGE fusion protein: human RAGE N-terminal sequence (to position 251) linked to human IgG Fc (γ1) without hinge; SEQ ID NO: 34/56 (protein)
chain: QNITARIGEPLVLKCKGAPKKPPQRLEWKLNTGRTEAWKVLSPQGGGPWDSVARVLPNGSLFLPAVGIQDEGIFRCQAMNRNGKETKSNYRVRVYQIPGKPEIVDSASELTAGVPNKVGTCVSEGSYPAGTLSWHLDGKPLVPNEKGVSVKEQTRRHPETGLFTLQSELMVTPARGGDPRPTFSCSFSPGLPRHRALRTAPIQPRVWEPVPLEEVQLVVEPEGGAVAPPSVFLFPPKPKDTLMISRTPEVTCVVVDVSHEDPEVKFNWYVDGVEVHNAKTKPREEQYNSTYRVVSVLTVLHQDWLNGKEYKCKVSNKALPAPIEKTISKAKGQPREPQVYTLPPSRDELTKNQVSLTCLVKGFYPSDIAVEWESNGQPENNYKTTPPVLDSDGSFFLYSKLTVDKSRWQQGNVFSCSVMHEALHNHYTQKSLSLSPGK
Amphoterin (Ampho)
  binding to immobilized amphoterin (increase in absorbance at 405 nm): specifically interact
[1]; 4 days after injury, dose-responsive
  vascular smooth muscle cell proliferation (BrdU-positive nuclei): significantly reduced
[1]; [2]
  Intimal area: 0.16 ± 0.02 mm^2
  Medial area: 0.11 ± 0.01 mm^2
[1]; [3]
  Intimal area: 0.18 ± 0.04 mm^2
  Medial area: 0.11 ± 0.02 mm^2
